What was measured:
HeLa Kyoto [1] = assay: solubility in G1/S (NP-40 vs SDS abundance) (log2 ratio); higher = more soluble; settings: cell cycle stage: G1/S
HeLa Kyoto [2] = assay: melting temperature (median over replicates), in situ; higher = more thermally stable
HeLa Kyoto [3] = assay: solubility change mitosis vs G1/S (difference of NP-40 vs SDS log2 ratios) (log2 ratio difference); higher = more soluble in mitosis
HeLa Kyoto [4] = assay: thermal stability score vs G1/S (z-score of summed log2 fold changes over temperatures); higher = more thermally stable than in G1/S
[5] = cell cycle stage: early G1 (4.5 h after nocodazole release)
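Wherever melting temperature (median over replicates), in situ is given: HeLa Kyoto cells synchronized by double thymidine or nocodazole block, proteins quantified by TMT10plex mass spectrometry, three independent biological replicates.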
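Wherever solubility change mitosis vs G1/S (difference of NP-40 vs SDS log2 ratios) is given: synchronized HeLa Kyoto cells (double thymidine block for G1/S, nocodazole release for mitosis), protein amounts in NP-40 versus SDS lysates quantified by mass spectrometry, three biological replicates.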
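Wherever solubility in G1/S (NP-40 vs SDS abundance) is given: HeLa Kyoto cells arrested at G1/S by double thymidine block, proteins quantified by TMT10plex mass spectrometry in mild NP-40 versus SDS extracts, three biological replicates.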
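Wherever thermal stability score vs G1/S (z-score of summed log2 fold changes over temperatures) is given: synchronized HeLa Kyoto cells, proteins quantified by TMT10plex mass spectrometry, three biological replicates, mitosis taken 0.5 h after nocodazole release, G1/S directly after double thymidine block.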

For “MPKGGRKGGHKGRARQYTSPEEIDAQLQAEKQKAREEEEQKEGGDGAAGDPKKEKKSLDSDESEDEEDDYQQKRKGVEGLIDIENPNRVAQTTKKVTQLDLDGPKELSRREREEIEKQKAKERYMKMHLAGKTEQAKADLARLAIIRKQREEAARKKEEERKAKDDATLSGKRMQSLSLNK [PDAP1]”, the “solubility in G1/S (log2)” value (HeLa Kyoto [1]) was 0.734, the melting temperature (HeLa Kyoto [2]; cell cycle stage: G1/S) was 57.9 °C and the melting temperature (HeLa Kyoto [2]; cell cycle stage: mitosis) was 54.2 °C. The “solubility change mitosis (log2)” value (HeLa Kyoto [3]) was 0.473, the thermal stability score (HeLa Kyoto [4]; [5]) was -6.85 and the thermal stability score (HeLa Kyoto [4]; cell cycle stage: mitosis) was -6.55.
For “MPKHEFSVDMTCGGCAEAVSRVLNKLGGVKYDIDLPNKKVCIESEHSMDTLLATLKKTGKTVSYLGLE [ATOX1]”, the “solubility in G1/S (log2)” value (HeLa Kyoto [1]) was -0.375, the melting temperature (HeLa Kyoto [2]; cell cycle stage: G1/S) was 54.8 °C and the melting temperature (HeLa Kyoto [2]; cell cycle stage: mitosis) was 52.8 °C. The “solubility change mitosis (log2)” value (HeLa Kyoto [3]) was 0.149, the thermal stability score (HeLa Kyoto [4]; [5]) was -3.27 and the thermal stability score (HeLa Kyoto [4]; cell cycle stage: mitosis) was -2.04.
With “MPKPINVRVTTMDAELEFAIQPNTTGKQLFDQVVKTVGLREVWFFGLQYVDSKGYSTWLKLNKKVTQQDVKKENPLQFKFRAKFFPEDVSEELIQEITQRLFFLQVKEAILNDEIYCPPETAVLLASYAVQAKYGDYNKEIHKPGYLANDRLLPQRVLEQHKLTKEQWEERIQNWHEEHRGMLREDSMMEYLKIAQDLEMYGVNYFEIKNKKGTELWLGVDALGLNIYEHDDKLTPKIGFPWSEIRNISFNDKKFVIKPIDKKAPDFVFYAPRLRINKRILALCMGNHELYMRRRKPDTIEVQQMKAQAREEKHQKQLERAQLENEKKKREIAEKEKERIEREKEELMERLKQIEEQTIKAQKELEEQTRKALELDQERKRAKEEAERLEKERRAAEEAKSAIAKQAADQMKNQEQLAAELAEFTAKIALLEEAKKKKEEEATEWQHKAFAAQEDLEKTKEELKTVMSAPPPPPPPPVIPPTENEHDEHDENNAEASAELSNEGVMNHRSEEERVTETQKNERVKKQLQALSSELAQARDETKKTQNDVLHAENVKAGRDKYKTLRQIRQGNTKQRIDEFEAM [RDX]” the “solubility in G1/S (log2)” value (HeLa Kyoto [1]) was 0.0601, the melting temperature (HeLa Kyoto [2]; cell cycle stage: G1/S) was 57.1 °C and the melting temperature (HeLa Kyoto [2]; cell cycle stage: mitosis) was 56.4 °C. The “solubility change mitosis (log2)” value (HeLa Kyoto [3]) was 0.0339, the thermal stability score (HeLa Kyoto [4]; [5]) was 0.702 and the thermal stability score (HeLa Kyoto [4]; cell cycle stage: mitosis) was 0.805.
With “MPKRKVSSAEGAAKEEPKRRSARLSAKPPAKVEAKPKKAAAKDKSSDKKVQTKGKRGAKGKQAEVANQETKEDLPAENGETKTEESPASDEAGEKEAKSD [HMGN1]” the “solubility in G1/S (log2)” value (HeLa Kyoto [1]) was 0.0899, the melting temperature (HeLa Kyoto [2]; cell cycle stage: G1/S) was 59 °C and the melting temperature (HeLa Kyoto [2]; cell cycle stage: mitosis) was 56.4 °C. The “solubility change mitosis (log2)” value (HeLa Kyoto [3]) was 1.47, the thermal stability score (HeLa Kyoto [4]; [5]) was -2.25 and the thermal stability score (HeLa Kyoto [4]; cell cycle stage: mitosis) was -4.73.
With “MPKVKRSRKAPPDGWELIEPTLDELDQKMREAETEPHEGKRKVESLWPIFRIHHQKTRYIFDLFYKRKAISRELYEYCIKEGYADKNLIAKWKKQGYENLCCLRCIQTRDTNFGTNCICRVPKSKLEVGRIIECTHCGCRGCSG [BUD31]” the “solubility in G1/S (log2)” value (HeLa Kyoto [1]) was -0.0954, the melting temperature (HeLa Kyoto [2]; cell cycle stage: G1/S) was 51.1 °C and the melting temperature (HeLa Kyoto [2]; cell cycle stage: mitosis) was 50.9 °C. For the same sequence, the “solubility change mitosis (log2)” value (HeLa Kyoto [3]) was 0.184, the thermal stability score (HeLa Kyoto [4]; [5]) was 1.19 and the thermal stability score (HeLa Kyoto [4]; cell cycle stage: mitosis) was 0.411.
With “MPKVKSGAIGRRRGRQEQRRELKSAGGLMFNTGIGQHILKNPLIINSIIDKAALRPTDVVLEVGPGTGNMTVKLLEKAKKVVACELDPRLVAELHKRVQGTPVASKLQVLVGDVLKTDLPFFDTCVANLPYQISSPFVFKLLLHRPFFRCAILMFQREFALRLVAKPGDKLYCRLSINTQLLARVDHLMKVGKNNFRPPPKVESSVVRIEPKNPPPPINFQEWDGLVRITFVRKNKTLSAAFKSSAVQQLLEKNYRIHCSVHNIIIPEDFSIADKIQQILTSTGFSDKRARSMDIDDFIRLLHGFNAEGIHFS [DIMT1]” the “solubility in G1/S (log2)” value (HeLa Kyoto [1]) was -0.509, the melting temperature (HeLa Kyoto [2]; cell cycle stage: G1/S) was 54.2 °C and the melting temperature (HeLa Kyoto [2]; cell cycle stage: mitosis) was 53.2 °C. The “solubility change mitosis (log2)” value (HeLa Kyoto [3]) was 0.276, the thermal stability score (HeLa Kyoto [4]; [5]) was 0.644 and the thermal stability score (HeLa Kyoto [4]; cell cycle stage: mitosis) was 1.74.
In the case of “MPLFATNPFDQDVEKATSEMNTAEDWGLILDICDKVGQSRTGPKDCLRSIMRRVNHKDPHVAMQALTLLGACVSNCGKIFHLEVCSRDFASEVSNVLNKGHPKVCEKLKALMVEWTDEFKNDPQLSLISAMIKNLKEQGVTFPAIGSQAAEQAKASPALVAKDPGTVANKKEEEDLAKAIELSLKEQRQQSTTLSTLYPSTSSLLTNHQHEGRKVRAIYDFEAAEDNELTFKAGEIITVLDDSDPNWWKGETHQGIGLFPSNFVTADLTAEPEMIKTEKKTVQFSDDVQVETIEPEPEPAFIDEDKMDQLLQMLQSTDPSDDQPDLPELLHLEAMCHQMGPLIDEKLEDIDRKHSELSELNVKVMEALSLYTKLMNEDPMYSMYAKLQNQPYYMQSSGVSGSQVYAGPPPSGAYLVAGNAQMSHLQSYSLPPEQLSSLSQAVVPPSANPALPSQQTQAAYPNTMVSSVQGNTYPSQAPVYSPPPAATAAAATADVTLYQNAGPNMPQVPNYNLTSSTLPQPGGSQQPPQPQQPYSQKALL [STAM]”, the “solubility in G1/S (log2)” value (HeLa Kyoto [1]) is reported as 0.292, the melting temperature (HeLa Kyoto [2]; cell cycle stage: G1/S) is reported as 50.3 °C and the melting temperature (HeLa Kyoto [2]; cell cycle stage: mitosis) is reported as 52 °C. The “solubility change mitosis (log2)” value (HeLa Kyoto [3]) was -0.163, the thermal stability score (HeLa Kyoto [4]; [5]) was 0.119 and the thermal stability score (HeLa Kyoto [4]; cell cycle stage: mitosis) was 0.654.

Reference: the supplement of paper PMC5998384
